Assay results: patent publication US20220259303A1 (ZHEJIANG DOER BIOLOGICS, published 2022)
Where a chain is given by its changes, count along the chain named.

B1: Anti-CLDN18×CD3-hu6V3 (bispecific antibody)
chain: QVQLVESGGGLVQPGGSLRLSCAASGGIFSIGVMGWYRQAPGKGLELVATITSRGSTNYADSVKGRFTISRDNSKNTLYLQMNSLRAEDTAVYYCYADLIRPGDFYGMDYWGQGTLVTVSSGGGGSGGGGSGGGGSGGGGSGGGGSGGGGSGGGGSEVQLVESGGGPVQAGGSLRLSCAASGRTYRGYSMGWFRQAPGKEREFVAAIVWSGGNTYYEDSVKGRFTISRDNAKNTMYLQMTSLKPEDSATYYCAAKIRPYIFKIAGQYDYWGQGTQVTVSS
notes: Bispecific VHH; Expressed in Pichia pastoris; also called Anti-CLDN18×CD3 fusion protein
B2: Anti-CLDN18×CD3-hu19V3 (bispecific antibody)
chain: QVQLVESGGGLVQPGGSLRLSCAASGVDISSDVMAWYRQAPGKGLEFVSGLTRGGSINYADSVKGRFTISRDNSKNTLYLQMNSLRAEDTAVYYCNAEIYTGTFYPRSYWGQGTLVTVSSGGGGSGGGGSGGGGSGGGGSGGGGSGGGGSGGGGSEVQLVESGGGPVQAGGSLRLSCAASGRTYRGYSMGWFRQAPGKEREFVAAIVWSGGNTYYEDSVKGRFTISRDNAKNTMYLQMTSLKPEDSATYYCAAKIRPYIFKIAGQYDYWGQGTQVTVSS
notes: as for B1
B3: Anti-C18.2-69 (VHH, not shown: small tags and cut ends)
VHH: QVQLVESGGGLVQPGGSLRLSCAASGSIFSIPVMTWYRQALGKEREFVAGISKGGTSNYADSVKGRFTVSRDNAKNTVYLQMNSLKSEDTAVYYCNAQASSFGWMPLSDYWGQGTQVTVSS
notes: Treated as one molecule; also called C18-69
B4: Anti-C18.2-19 (VHH, not shown: small tags and cut ends)
VHH: QLQLVESGGGLVQPGGSLRLSCAASGVDISSDVMAWYRQAPGKQREFVSGLTRGGSINYADSVKGRFTISRDFAKNTVDLQMNSLKPEDTAVYYCNAEIYTGTFYPRSYWGQGTQVTVSS
notes: Treated as one molecule; also called C18-19
B5: Anti-C18.2-7 (VHH, not shown: small tags and cut ends)
VHH: QVQLVESGGGLVQPGGSLRLSCAASGSIFLINAMGWYRQAPGKQRELVAVITRGGSANYTDSVKGRFTISRDNAKNTVYLQMNSLKPEDTAVYYCNADLNLRSDPFKWYTFWGQGTQVTVSS
notes: Treated as one molecule; also called C18-7
B6: Anti-C18.2-28 (VHH, not shown: small tags and cut ends)
VHH: B5 VHH with L30M, A33V, G55A, A57T, T60A, R102A, F111Y
notes: Treated as one molecule; also called C18-28
B7: Anti-C18.2-15 (VHH, not shown: small tags and cut ends)
VHH: QVQLVESGGGLVQPGGSLRLSCTASGSIFRIDGMHWYRQAPGKQRELVASITPSGITHYADSVKGRFTISRDIAKKMQYLQMNSLKPEDTAVYYCNAHLVKVGGVWSDEYWGQGTQVTVSS
notes: Treated as one molecule; also called C18-15
B8: Anti-C18.2-32 (VHH, not shown: small tags and cut ends)
VHH: QLQLVESGGGLVQPGGSLRLSCAASGEISSDAMAWYRQAPGKQRELVAGMTRGGSTNYADSVKGRFTISRDFAKNTVDLQMNSLKPEDTAVYYCNAEIYTGTFYPRSYWGQGTQVTVSS
notes: Treated as one molecule; also called C18-32
B9: Anti-C18.2-6 (VHH, not shown: small tags and cut ends)
VHH: QLQLVESGGGLVQPGGSLRLSCAASGGIFSIGVMGWYRQAPGKQRELVATITSRGSTNYADSVKGRFTISGDNAKNTVYLQMNNLKPEDTAVYYCYADLIRPGDFYGMDYWGKGTLVTVSS
notes: Treated as one molecule; also called C18-6
B10: Anti-C18.2-20 (VHH, not shown: small tags and cut ends)
VHH: QVQLVESGGGLVQPGGSLRLSCAASGSIFSINAMGWYRQAPGKQRELVAAITFGGGSTNYADSVKGRFTISRDNAKNTVYLQMNSLKPEDTAVYYCNADLLVGGFPRRNVYWGQGTQVTVSS
notes: Treated as one molecule; also called C18-20
B11: ch-175D10 (antibody, V domains shown)
VH: QVQLQQPGAELVRPGASVKLSCKASGYTFTSYWINWVKQRPGQGLEWIGNIYPSDSYTNYNQKFKDKATLTVDKSSSTAYMQLSSPTSEDSAVYYCTRSWRGNSFDYWGQGTTLTVSS
VL: DIVMTQSPSSLTVTAGEKVTMSCKSSQSLLNSGNQKNYLTWYQQKPGQPPKLLIYWASTRESGVPDRFTGSGSGTDFTLTISSVQAEDLAVYYCQNDYSYPFTFGSGTKLEIKR

These binders were tested against T1, CLD18A2 (assay: cell ELISA on CHO-S-CLD18A2, anti-his tag detection).
T1 construct: also called claudin 18 splice variant A2; CHO-S-CLD18A2
Method: (§1) CHO-S-CLD18A2 cells are plated in a 96-well plate at 5×10⁵ cells per well, and blocked with 3% BSA at room temperature for 1 h. The purified Anti-CLD18A2 VHH fused with histidine tag is diluted in gradients with 1% BSA, added to the blocked cells, and incubated for 1 h at room temperature. After washing, 100 μl/well of 1:5000 diluted mouse anti-his tag antibody (R&D Systems, Inc) was added and incubated at room temperature for 1 h. After washing, 100 μl/well of 1:10000 diluted HRP-Goat anti-mouse IgG antibody (Thermo Scientific) was added and incubated for 1 h at room temperature. After washing, TMB was added to develop color. The OD value is detected at 450 nm. The software GraphPad Prism v5.0 is used for data processing and mapping analysis, and the EC50 value of Anti-CLD18A2 VHH against CLD18A2 on cells is obtained to reflect the affinity of the VHH to CLD18A2.
(§2) CHO-S-CLD18A2 and Jurkat cells are plated in 96-well plates at 5×10⁵/ml per well, and blocked with 3% BSA for 1 hat room temperature. The purified Anti-CLDN18×CD3 fusion protein, the Anti-C18.2-6 and Anti-C18.2-19 VHH prepared in Embodiment 4, and the anti-CD3 VHH are diluted in gradients with 1% BSA, and then added into the pre-blocked cells respectively, and then incubated at room temperature for 1 h. The following experimental process is the same as in Embodiment 4.3. […]

EC50 [nM] | Binder
6.5 | B1
4.6 | B2

The binders below were run against T1, CLD18A2 (assay: cell ELISA, his-tagged VHH titrated on CHO-S-CLD18A2).
Method: as §1

EC50 [nM] | Binder
2.23 | B3
1.25 | B4
2.12 | B5
2.54 | B6
2.89 | B7
2.21 | B8
1.53 | B9
1.87 | B10

These binders were tested against T1, CLD18A2 (assay: cell ELISA on CLD18A2-expressing cells, anti-human IgG Fc detection).
Method: The Anti-C18.2-Fc fusion proteins are diluted in gradients with 1% BSA, and the HRP-Goat anti-Human IgG Fc (Novex) secondary antibody is diluted 1:20000. The cell ELISA method is the same as that described in Embodiment 3.2. The software GraphPad Prism v5.0 is used for data processing and mapping analysis. The binding curve and EC50 value of Anti-C18.2-Fc against CLD18A2 in cells are obtained to reflect the affinity of the antibody to CLD18A2.
The affinities of Anti-C18.2-hu19V1-Fc and Anti-C18.2-hu19V3-Fc are similar to that of Anti-C18.2-19-Fc, which are better than that of the positive control ch-175D10.

EC50 [nM] | Binder
2.59 | B11

The binders below were run against T1, CLD18A2 (assay: cell-based or functional assay).

Binder | EC50 of killing of NUGC-4-CLD18A2 with T cells (LDH release, E:T 10:1) [nM]
B1 | 0.0261
B2 | 0.0207

The binders below were run against T2, CD3 (human, UniProt P07766 23-207; P09693 23-182; P04234 22-171; P20963 22-164) (assay: cell ELISA on CD3-positive Jurkat cells, anti-his tag detection).
T2 construct: whole, on cells; also called CD3 positive cell Jurkat; cluster of differentiation 3
Method: as §1, §2

T2 sequence (P07766 23-207, chain 1 of 4): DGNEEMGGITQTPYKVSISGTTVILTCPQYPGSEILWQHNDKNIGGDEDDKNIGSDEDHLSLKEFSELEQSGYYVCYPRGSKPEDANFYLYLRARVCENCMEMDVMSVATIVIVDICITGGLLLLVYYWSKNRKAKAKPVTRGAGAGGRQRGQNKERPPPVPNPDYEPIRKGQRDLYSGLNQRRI
T2 sequence (P09693 23-182, chain 2 of 4): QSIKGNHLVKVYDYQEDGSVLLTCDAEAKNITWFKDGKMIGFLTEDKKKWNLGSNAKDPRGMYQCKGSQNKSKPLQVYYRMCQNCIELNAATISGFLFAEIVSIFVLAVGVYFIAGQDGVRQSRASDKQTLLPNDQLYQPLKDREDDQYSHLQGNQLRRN
T2 sequence (P04234 22-171, chain 3 of 4): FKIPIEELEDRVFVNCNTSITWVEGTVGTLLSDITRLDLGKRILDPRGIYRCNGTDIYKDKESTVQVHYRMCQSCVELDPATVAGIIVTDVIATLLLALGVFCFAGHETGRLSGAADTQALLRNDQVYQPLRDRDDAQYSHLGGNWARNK
T2 sequence (P20963 22-164, chain 4 of 4): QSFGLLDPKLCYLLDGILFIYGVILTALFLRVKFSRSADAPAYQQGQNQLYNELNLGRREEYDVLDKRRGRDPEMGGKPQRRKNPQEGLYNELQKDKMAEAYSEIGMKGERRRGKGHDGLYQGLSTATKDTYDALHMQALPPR

EC50 [nM] | Binder
9.39 | B1
10.4 | B2

These binders were tested against T1, CLD18A2 (assay: cell ELISA, E. coli expression supernatant on CHO-S-CLD18A2).
Method: (§3) The clones selected according to the results of the 96-well plates of CHO-S, CHO-S-CLD18A1, and CHO-S-CLD18A2 cells are cultured. pcomb3XSS plasmids containing a single VHH sequence are extracted, and transformed into E. coli respectively to expression host Rosetta DE3. The respective expression clones are selected and cultured, then induced with 0.2 mM IPTG at 30° C. overnight to facilitate the periplasm-expressed proteins leakage into the culture medium supernatant. The culture medium supernatant of 16 clones are examined by ELISA again: adding 100 μl/well of 1:5000 diluted mouse anti his tag antibody (R&D Systems, Inc), incubating at room temperature for 1 h, washing, adding 100 μl/well of 1:10000 diluted HRP-Goat anti-mouse IgG antibody (Thermo Scientific), incubating for 1 h at room temperature, and adding TMB to develop color after washing. The negative control is a clone transfected with negative plasmid. The cell ELISA results are shown in Table 1, and the specific binding clones are further selected. These clones are sequenced respectively. Amino acid sequence alignment is performed. Clones with identical sequences are removed and finally 8 different clones are obtained.

OD450 nm [OD450 nm] | Binder
0.608 | B3
0.565 | B4
0.594 | B5
0.47 | B6
0.685 | B7
0.526 | B8
0.623 | B9
0.528 | B10

These binders were tested against T1, CLD18A2 (assay: cell ELISA, purified VHH 2 µg/ml on CHO-S-CLD18A2).
Method: (§4) CHO-S, CHO-S-CLD18A1, and CHO-S-CLD18A2 are plated in 96-well plates at 5×10⁵ cells per well, and blocked with 3% BSA at room temperature for 1 h. The purified Anti-CLD18A2 VHH with HIS-tag is diluted to 2 μg/ml, add 100 μl to the blocked cells, and incubated for 1 h at room temperature. After washing, 100 μl/well of 1:5000 diluted mouse anti-his tag antibody (R&D Systems, Inc) was added and incubated at room temperature for 1 h. After washing, 100 μl/well of 1:10000 diluted HRP-Goat anti-mouse IgG antibody (Thermo Scientific) was added and incubated for 1 h at room temperature. After washing, TMB was added to develop color. The OD value is measured at 450 nm.

OD450 nm [OD450 nm] | Binder
0.573 | B3
0.668 | B4
0.658 | B5
0.598 | B6
0.671 | B7
0.586 | B8
0.719 | B9
0.621 | B10

What follows are binders tested against T3, CLD18A1 (Homo sapiens (Human), UniProt P56856 1-261) (assay: cell ELISA, E. coli expression supernatant on CHO-S-CLD18A1).
T3 construct: also called claudin 18 splice variant A1; CHO-S-CLD18A1
Method: as §3

T3 sequence (P56856 whole entry, canonical isoform): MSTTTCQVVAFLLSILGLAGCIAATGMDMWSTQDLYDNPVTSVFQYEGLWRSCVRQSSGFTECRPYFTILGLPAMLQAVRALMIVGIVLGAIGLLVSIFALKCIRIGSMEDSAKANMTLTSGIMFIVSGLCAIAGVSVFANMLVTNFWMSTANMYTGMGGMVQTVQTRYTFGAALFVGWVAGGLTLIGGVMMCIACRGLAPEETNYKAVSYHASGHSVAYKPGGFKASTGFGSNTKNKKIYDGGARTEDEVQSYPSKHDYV

OD450 nm [OD450 nm] | Binder
0.253 | B3
0.121 | B4
0.132 | B5
0.121 | B6
0.189 | B7
0.107 | B8
0.142 | B9
0.128 | B10

These binders were tested against T3, CLD18A1 (assay: cell ELISA, purified HIS-tagged VHH on CHO-S-CLD18A1).
Method: as §4

binding result | Binder
no binding (tested: 2 µg/ml) | B3
no binding (tested: 2 µg/ml) | B4
no binding (tested: 2 µg/ml) | B5
no binding (tested: 2 µg/ml) | B6
no binding (tested: 2 µg/ml) | B7
no binding (tested: 2 µg/ml) | B8
no binding (tested: 2 µg/ml) | B9
no binding (tested: 2 µg/ml) | B10
